How the values were obtained:
Assay in all cases: stopped-flow fluorometry; mGppNHp-bound RHO protein (0.2 μM) rapidly mixed with IQGAP1 variant (2 μM, or 2-12 μM for kon); koff by displacement with 10 μM non-fluorescent GppNHp-bound GTPase; Kd = koff/kon; 30 mM Tris-HCl pH 7.5, 10 mM KH2PO4/K2HPO4, 5 mM MgCl2, 3 mM DTT
Conditions in all cases: both partners purified
[1] = target: T1, IQGAP1 GRD1-CT (aa 863-1657) (human, UniProt P46940 863-1657)
T1 construct: human IQGAP1, GRD, RGCT and CT domains, aa 863-1657; The GST tag was cleaved 'if needed'; also called C-terminal half of IQGAP1; C-terminal 795 amino acids of IQGAP1
T1 sequence (looked up): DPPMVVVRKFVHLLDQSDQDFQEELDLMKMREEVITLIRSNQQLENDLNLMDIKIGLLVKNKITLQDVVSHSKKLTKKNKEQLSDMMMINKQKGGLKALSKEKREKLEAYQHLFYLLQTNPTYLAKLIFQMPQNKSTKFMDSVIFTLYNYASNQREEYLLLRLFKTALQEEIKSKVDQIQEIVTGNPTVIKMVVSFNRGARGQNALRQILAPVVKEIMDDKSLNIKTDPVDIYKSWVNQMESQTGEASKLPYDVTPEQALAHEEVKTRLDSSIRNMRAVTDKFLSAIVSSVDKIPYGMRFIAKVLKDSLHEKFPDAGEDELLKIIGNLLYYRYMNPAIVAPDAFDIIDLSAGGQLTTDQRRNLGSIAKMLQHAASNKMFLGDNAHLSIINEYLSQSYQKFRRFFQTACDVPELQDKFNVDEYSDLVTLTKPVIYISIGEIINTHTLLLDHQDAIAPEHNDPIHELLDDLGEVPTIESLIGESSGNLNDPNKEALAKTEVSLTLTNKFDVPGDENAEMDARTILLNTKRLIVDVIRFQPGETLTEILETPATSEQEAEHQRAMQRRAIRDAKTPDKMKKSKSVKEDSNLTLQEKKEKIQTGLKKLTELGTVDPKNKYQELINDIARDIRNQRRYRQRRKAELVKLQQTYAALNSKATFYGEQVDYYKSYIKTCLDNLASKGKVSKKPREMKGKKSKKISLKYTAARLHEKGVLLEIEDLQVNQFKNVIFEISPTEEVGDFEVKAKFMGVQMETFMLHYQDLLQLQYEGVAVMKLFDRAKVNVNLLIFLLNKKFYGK

[2] = target: T2, IQGAP1 GRD1-RGCT S1441E (aa 877-1558) (human, UniProt P46940 877-1558, S1441E)
T2 construct: human IQGAP1 aa 877-1558 with the phosphomimetic mutation S1441E, from the vector pET46 EkLIC; source: E. coli (pLysS BL21(DE3), CodonPlusRIL or BL21(Rosetta)), purified (Ni-NTA, gel filtration)
T2 sequence (looked up): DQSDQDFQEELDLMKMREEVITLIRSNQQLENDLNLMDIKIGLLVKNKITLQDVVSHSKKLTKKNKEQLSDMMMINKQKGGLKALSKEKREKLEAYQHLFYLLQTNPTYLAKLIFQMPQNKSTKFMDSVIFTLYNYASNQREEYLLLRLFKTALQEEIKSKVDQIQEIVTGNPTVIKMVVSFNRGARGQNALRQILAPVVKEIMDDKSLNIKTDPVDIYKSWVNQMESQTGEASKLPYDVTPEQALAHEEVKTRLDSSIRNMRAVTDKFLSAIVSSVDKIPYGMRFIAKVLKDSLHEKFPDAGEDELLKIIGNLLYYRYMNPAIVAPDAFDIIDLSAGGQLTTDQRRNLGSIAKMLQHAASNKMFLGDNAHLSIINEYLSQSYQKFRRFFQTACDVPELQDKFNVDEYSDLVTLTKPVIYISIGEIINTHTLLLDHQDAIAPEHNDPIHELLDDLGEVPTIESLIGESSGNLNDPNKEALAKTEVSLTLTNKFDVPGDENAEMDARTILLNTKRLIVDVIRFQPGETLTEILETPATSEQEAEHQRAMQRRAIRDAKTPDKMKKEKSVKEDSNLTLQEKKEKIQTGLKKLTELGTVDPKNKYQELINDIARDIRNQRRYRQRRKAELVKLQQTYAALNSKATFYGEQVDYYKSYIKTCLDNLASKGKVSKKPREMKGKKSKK

[3] = target: T3, IQGAP1 GRD1-RGCT S1443E (aa 877-1558) (human, UniProt P46940 877-1558, S1443E)
T3 construct: human IQGAP1 aa 877-1558 with the phosphomimetic mutation S1443E (printed as S1143E in the methods, S1443E everywhere else), from the vector pET46 EkLIC; source: E. coli (pLysS BL21(DE3), CodonPlusRIL or BL21(Rosetta)), purified (Ni-NTA, gel filtration)
T3 sequence (looked up): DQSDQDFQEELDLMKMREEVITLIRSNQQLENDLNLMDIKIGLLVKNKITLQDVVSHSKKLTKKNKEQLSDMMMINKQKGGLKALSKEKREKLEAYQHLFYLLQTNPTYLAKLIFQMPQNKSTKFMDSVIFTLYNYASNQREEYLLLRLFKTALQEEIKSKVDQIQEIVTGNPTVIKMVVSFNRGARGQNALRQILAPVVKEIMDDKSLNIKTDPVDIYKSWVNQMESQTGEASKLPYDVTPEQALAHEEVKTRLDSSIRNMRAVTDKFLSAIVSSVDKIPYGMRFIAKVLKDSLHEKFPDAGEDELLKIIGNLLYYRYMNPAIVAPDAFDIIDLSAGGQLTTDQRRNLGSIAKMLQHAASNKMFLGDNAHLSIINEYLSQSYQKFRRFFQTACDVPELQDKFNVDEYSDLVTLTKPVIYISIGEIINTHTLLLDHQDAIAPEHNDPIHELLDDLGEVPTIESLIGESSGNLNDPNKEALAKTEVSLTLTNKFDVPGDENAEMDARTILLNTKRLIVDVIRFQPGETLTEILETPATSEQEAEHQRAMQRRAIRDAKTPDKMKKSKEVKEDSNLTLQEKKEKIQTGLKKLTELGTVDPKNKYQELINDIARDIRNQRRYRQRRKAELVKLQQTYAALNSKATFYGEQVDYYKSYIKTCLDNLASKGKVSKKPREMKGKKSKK

B1: CDC42 (aa 1-178) (domain or fragment)
chain: not shown
notes: human CDC42, C-terminally truncated, aa 1-178; Loaded non-covalently with mGppNHp, tGppNHp, mGDP or non-fluorescent GppNHp; the nucleotide is named in the format of each assay; also called CDC42^WT; CDC42-mGppNHp
Kd [1]: 300 nM | Kd [2]: 2050 nM | Kd [3]: 7030 nM

Reference: publication PMC5159498, “IQGAP1 Interaction with RHO Family Proteins Revisited” (The Journal of Biological Chemistry, 2016)
